In US10941182 (Amgen, dated 2021):
Starred links: 1 amine or outer side, 2 acyl side, 3 side chain; linkers in the order of their positions; H or OH if unused. Non-standard residues stand in square brackets, D forms with d. Primed or numbered codes have the meaning given here. *: point of attachment. Oic = O=C(O)[C@@H]1C[C@@H]2CCCC[C@@H]2N1; Phe(4-Cl) = N[C@@H](Cc1ccc(Cl)cc1)C(=O)O; γGlu = O=C(O)[C@H](CCC(=O)[*:2])N[*:1]; NMehArg = CN[C@@H](CCCCNC(=N)N)C(=O)O; NMeR = CN[C@@H](CCCNC(=N)N)C(=O)O; Tridecanoyl = CCCCCCCCCCCCC(=O)*; hArg = N=C(N)NCCCC[C@H](N)C(=O)O; Cha = N[C@@H](CC1CCCCC1)C(=O)O; Nle = CCCC[C@H](N)C(=O)O; Pip′ = not defined here; AEEA = NCCOCCOCC(=O)O; Aib = CC(C)(N)C(=O)O

T1: human APJ receptor (human, UniProt P35414 1-380)
T1 sequence (looked up): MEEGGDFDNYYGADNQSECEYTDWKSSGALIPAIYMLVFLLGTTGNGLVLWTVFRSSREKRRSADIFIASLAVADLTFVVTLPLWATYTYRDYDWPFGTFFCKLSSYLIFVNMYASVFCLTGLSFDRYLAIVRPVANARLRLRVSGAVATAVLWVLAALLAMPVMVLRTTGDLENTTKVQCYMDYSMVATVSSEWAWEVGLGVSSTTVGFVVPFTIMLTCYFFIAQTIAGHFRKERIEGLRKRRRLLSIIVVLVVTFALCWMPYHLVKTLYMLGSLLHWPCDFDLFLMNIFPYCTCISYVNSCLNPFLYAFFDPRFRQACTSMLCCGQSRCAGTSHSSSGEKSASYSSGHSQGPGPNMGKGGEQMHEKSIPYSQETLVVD

T2: rat APJ receptor (rat, UniProt Q9JHG3 1-377)
T2 sequence (looked up): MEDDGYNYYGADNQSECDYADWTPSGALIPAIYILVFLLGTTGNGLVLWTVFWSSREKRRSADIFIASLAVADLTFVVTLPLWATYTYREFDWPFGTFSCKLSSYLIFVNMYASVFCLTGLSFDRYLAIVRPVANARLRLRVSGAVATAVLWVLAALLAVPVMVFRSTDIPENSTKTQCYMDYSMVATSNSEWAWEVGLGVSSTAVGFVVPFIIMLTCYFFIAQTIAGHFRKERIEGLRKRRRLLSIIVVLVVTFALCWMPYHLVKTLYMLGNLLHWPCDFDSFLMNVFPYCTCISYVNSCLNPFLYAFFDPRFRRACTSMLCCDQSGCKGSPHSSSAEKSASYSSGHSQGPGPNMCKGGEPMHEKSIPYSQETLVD

B1: Apelin polypeptide SEQ ID NO: 427 (peptide)
peptide: Tridecanoyl-[γGlu][AEEA][AEEA]QRPPLSHKGP[Nle]P[Phe(4-Cl)]-OH
SMILES: CCCCCCCCCCCCC(=O)N[C@@H](CCC(=O)NCCOCCOCC(=O)NCCOCCOCC(=O)N[C@@H](CCC(N)=O)C(=O)N[C@@H](CCCNC(=N)N)C(=O)N1CCC[C@H]1C(=O)N1CCC[C@H]1C(=O)N[C@@H](CC(C)C)C(=O)N[C@@H](CO)C(=O)N[C@@H](Cc1c[nH]cn1)C(=O)N[C@@H](CCCCN)C(=O)NCC(=O)N1CCC[C@H]1C(=O)N[C@@H](CCCC)C(=O)N1CCC[C@H]1C(=O)N[C@@H](Cc1ccc(Cl)cc1)C(=O)O)C(=O)O
B2: Apelin polypeptide SEQ ID NO: 480 (peptide)
peptide: Tridecanoyl-[γGlu][AEEA][AEEA][dR]Q[hArg]P[hArg][Cha]SHKG[Oic][Nle]P[Phe(4-Cl)]-OH
SMILES: CCCCCCCCCCCCC(=O)N[C@@H](CCC(=O)NCCOCCOCC(=O)NCCOCCOCC(=O)N[C@H](CCCNC(=N)N)C(=O)N[C@@H](CCC(N)=O)C(=O)N[C@@H](CCCCNC(=N)N)C(=O)N1CCC[C@H]1C(=O)N[C@@H](CCCCNC(=N)N)C(=O)N[C@@H](CC1CCCCC1)C(=O)N[C@@H](CO)C(=O)N[C@@H](Cc1c[nH]cn1)C(=O)N[C@@H](CCCCN)C(=O)NCC(=O)N1[C@H](C(=O)N[C@@H](CCCC)C(=O)N2CCC[C@H]2C(=O)N[C@@H](Cc2ccc(Cl)cc2)C(=O)O)C[C@@H]2CCCC[C@@H]21)C(=O)O
B3: Apelin polypeptide SEQ ID NO: 465 (peptide)
peptide: Tridecanoyl-[γGlu][AEEA][AEEA]QRPQLSHKGP[Nle]P[Phe(4-Cl)]-OH
SMILES: CCCCCCCCCCCCC(=O)N[C@@H](CCC(=O)NCCOCCOCC(=O)NCCOCCOCC(=O)N[C@@H](CCC(N)=O)C(=O)N[C@@H](CCCNC(=N)N)C(=O)N1CCC[C@H]1C(=O)N[C@@H](CCC(N)=O)C(=O)N[C@@H](CC(C)C)C(=O)N[C@@H](CO)C(=O)N[C@@H](Cc1c[nH]cn1)C(=O)N[C@@H](CCCCN)C(=O)NCC(=O)N1CCC[C@H]1C(=O)N[C@@H](CCCC)C(=O)N1CCC[C@H]1C(=O)N[C@@H](Cc1ccc(Cl)cc1)C(=O)O)C(=O)O
B4: Apelin polypeptide SEQ ID NO: 430 (peptide)
peptide: Tridecanoyl-[γGlu][AEEA][AEEA]Q[dR]P[dR][Cha]SHKG[Oic][Nle]P[Phe(4-Cl)]-OH
SMILES: CCCCCCCCCCCCC(=O)N[C@@H](CCC(=O)NCCOCCOCC(=O)NCCOCCOCC(=O)N[C@@H](CCC(N)=O)C(=O)N[C@H](CCCNC(=N)N)C(=O)N1CCC[C@H]1C(=O)N[C@H](CCCNC(=N)N)C(=O)N[C@@H](CC1CCCCC1)C(=O)N[C@@H](CO)C(=O)N[C@@H](Cc1c[nH]cn1)C(=O)N[C@@H](CCCCN)C(=O)NCC(=O)N1[C@H](C(=O)N[C@@H](CCCC)C(=O)N2CCC[C@H]2C(=O)N[C@@H](Cc2ccc(Cl)cc2)C(=O)O)C[C@@H]2CCCC[C@@H]21)C(=O)O
B5: Apelin polypeptide SEQ ID NO: 435 (peptide)
peptide: Tridecanoyl-[γGlu][AEEA][AEEA]Q[dR]P[NMehArg][Cha]SHKGP[Nle]P[Phe(4-Cl)]-OH
SMILES: CCCCCCCCCCCCC(=O)N[C@@H](CCC(=O)NCCOCCOCC(=O)NCCOCCOCC(=O)N[C@@H](CCC(N)=O)C(=O)N[C@H](CCCNC(=N)N)C(=O)N1CCC[C@H]1C(=O)N(C)[C@@H](CCCCNC(=N)N)C(=O)N[C@@H](CC1CCCCC1)C(=O)N[C@@H](CO)C(=O)N[C@@H](Cc1c[nH]cn1)C(=O)N[C@@H](CCCCN)C(=O)NCC(=O)N1CCC[C@H]1C(=O)N[C@@H](CCCC)C(=O)N1CCC[C@H]1C(=O)N[C@@H](Cc1ccc(Cl)cc1)C(=O)O)C(=O)O
B6: Apelin polypeptide SEQ ID NO: 343 (peptide)
peptide: Tridecanoyl-[γGlu][AEEA][AEEA]RQ[Nle]P[hArg][Cha]SAKG[Oic][Nle]P[Phe(4-Cl)]-OH
SMILES: CCCCCCCCCCCCC(=O)N[C@@H](CCC(=O)NCCOCCOCC(=O)NCCOCCOCC(=O)N[C@@H](CCCNC(=N)N)C(=O)N[C@@H](CCC(N)=O)C(=O)N[C@@H](CCCC)C(=O)N1CCC[C@H]1C(=O)N[C@@H](CCCCNC(=N)N)C(=O)N[C@@H](CC1CCCCC1)C(=O)N[C@@H](CO)C(=O)N[C@@H](C)C(=O)N[C@@H](CCCCN)C(=O)NCC(=O)N1[C@H](C(=O)N[C@@H](CCCC)C(=O)N2CCC[C@H]2C(=O)N[C@@H](Cc2ccc(Cl)cc2)C(=O)O)C[C@@H]2CCCC[C@@H]21)C(=O)O
B7: Apelin polypeptide SEQ ID NO: 348 (peptide)
peptide: Tridecanoyl-[γGlu][AEEA][AEEA]RQ[Nle]P[hArg][Cha]AAKG[Oic][Nle]P[Phe(4-Cl)]-OH
SMILES: CCCCCCCCCCCCC(=O)N[C@@H](CCC(=O)NCCOCCOCC(=O)NCCOCCOCC(=O)N[C@@H](CCCNC(=N)N)C(=O)N[C@@H](CCC(N)=O)C(=O)N[C@@H](CCCC)C(=O)N1CCC[C@H]1C(=O)N[C@@H](CCCCNC(=N)N)C(=O)N[C@@H](CC1CCCCC1)C(=O)N[C@@H](C)C(=O)N[C@@H](C)C(=O)N[C@@H](CCCCN)C(=O)NCC(=O)N1[C@H](C(=O)N[C@@H](CCCC)C(=O)N2CCC[C@H]2C(=O)N[C@@H](Cc2ccc(Cl)cc2)C(=O)O)C[C@@H]2CCCC[C@@H]21)C(=O)O
B8: Apelin polypeptide SEQ ID NO: 526 (peptide)
peptide: Tridecanoyl-[γGlu][AEEA][AEEA][dQ]RPE[Cha]SHKG[Oic][Nle][Aib][Phe(4-Cl)]-OH
SMILES: CCCCCCCCCCCCC(=O)N[C@@H](CCC(=O)NCCOCCOCC(=O)NCCOCCOCC(=O)N[C@H](CCC(N)=O)C(=O)N[C@@H](CCCNC(=N)N)C(=O)N1CCC[C@H]1C(=O)N[C@@H](CCC(=O)O)C(=O)N[C@@H](CC1CCCCC1)C(=O)N[C@@H](CO)C(=O)N[C@@H](Cc1c[nH]cn1)C(=O)N[C@@H](CCCCN)C(=O)NCC(=O)N1[C@H](C(=O)N[C@@H](CCCC)C(=O)NC(C)(C)C(=O)N[C@@H](Cc2ccc(Cl)cc2)C(=O)O)C[C@@H]2CCCC[C@@H]21)C(=O)O
B9: Apelin polypeptide SEQ ID NO: 477 (peptide)
peptide: Tridecanoyl-[γGlu][AEEA][AEEA]QRPELSHKGP[Nle]P[Phe(4-Cl)]-OH
SMILES: CCCCCCCCCCCCC(=O)N[C@@H](CCC(=O)NCCOCCOCC(=O)NCCOCCOCC(=O)N[C@@H](CCC(N)=O)C(=O)N[C@@H](CCCNC(=N)N)C(=O)N1CCC[C@H]1C(=O)N[C@@H](CCC(=O)O)C(=O)N[C@@H](CC(C)C)C(=O)N[C@@H](CO)C(=O)N[C@@H](Cc1c[nH]cn1)C(=O)N[C@@H](CCCCN)C(=O)NCC(=O)N1CCC[C@H]1C(=O)N[C@@H](CCCC)C(=O)N1CCC[C@H]1C(=O)N[C@@H](Cc1ccc(Cl)cc1)C(=O)O)C(=O)O
B10: Apelin polypeptide SEQ ID NO: 527 (peptide)
peptide: Tridecanoyl-[γGlu][AEEA][AEEA][dQ]RP[dE][Cha]SHKG[Oic][Nle][Aib][Phe(4-Cl)]-OH
SMILES: CCCCCCCCCCCCC(=O)N[C@@H](CCC(=O)NCCOCCOCC(=O)NCCOCCOCC(=O)N[C@H](CCC(N)=O)C(=O)N[C@@H](CCCNC(=N)N)C(=O)N1CCC[C@H]1C(=O)N[C@H](CCC(=O)O)C(=O)N[C@@H](CC1CCCCC1)C(=O)N[C@@H](CO)C(=O)N[C@@H](Cc1c[nH]cn1)C(=O)N[C@@H](CCCCN)C(=O)NCC(=O)N1[C@H](C(=O)N[C@@H](CCCC)C(=O)NC(C)(C)C(=O)N[C@@H](Cc2ccc(Cl)cc2)C(=O)O)C[C@@H]2CCCC[C@@H]21)C(=O)O
B11: Apelin polypeptide SEQ ID NO: 479 (peptide)
peptide: Tridecanoyl-[γGlu][AEEA][AEEA][dR]Q[hArg]P[NMeR][Cha]SHKG[Oic][Nle]P[Phe(4-Cl)]-OH
SMILES: CCCCCCCCCCCCC(=O)N[C@@H](CCC(=O)NCCOCCOCC(=O)NCCOCCOCC(=O)N[C@H](CCCNC(=N)N)C(=O)N[C@@H](CCC(N)=O)C(=O)N[C@@H](CCCCNC(=N)N)C(=O)N1CCC[C@H]1C(=O)N(C)[C@@H](CCCNC(=N)N)C(=O)N[C@@H](CC1CCCCC1)C(=O)N[C@@H](CO)C(=O)N[C@@H](Cc1c[nH]cn1)C(=O)N[C@@H](CCCCN)C(=O)NCC(=O)N1[C@H](C(=O)N[C@@H](CCCC)C(=O)N2CCC[C@H]2C(=O)N[C@@H](Cc2ccc(Cl)cc2)C(=O)O)C[C@@H]2CCCC[C@@H]21)C(=O)O
B12: Apelin polypeptide SEQ ID NO: 564 (peptide)
peptide: Tridecanoyl-[γGlu][AEEA][AEEA]RQ[Nle]P[hArg][Cha]SAKG[Pip′][Nle]P[Phe(4-Cl)]-OH

target: T1, human APJ receptor; experiment: cell-based or functional assay

EC50 Human APJ Receptor (GTPγS assay) [nM]	Binder
0.17	B1
0.0998	B2
0.0692	B3
1.22	B4
0.461	B5
1.4	B6
4.92	B7
2.02	B8
0.423	B9
108	B10
0.409	B11
0.331	B12

target: T2, rat APJ receptor; experiment: cell-based or functional assay

EC50 Rat APJ Receptor (GTPγS assay) [nM]	Binder
0.313	B1
0.271	B2
0.175	B3
2.83	B4
1.15	B5
1.24	B6
7.46	B7
7.2	B8
0.691	B9
227	B10
0.805	B11
1.49	B12
